Tests used:
Test in all cases: Kinase Profiling Assay
Assay type in all cases: biochemical
Details in all cases: 100 μM peptide
NEK3(h) = molecular target: T1, NEK3(h) (Homo sapiens, UniProt P51956)
T1 sequence (P51956 1-506): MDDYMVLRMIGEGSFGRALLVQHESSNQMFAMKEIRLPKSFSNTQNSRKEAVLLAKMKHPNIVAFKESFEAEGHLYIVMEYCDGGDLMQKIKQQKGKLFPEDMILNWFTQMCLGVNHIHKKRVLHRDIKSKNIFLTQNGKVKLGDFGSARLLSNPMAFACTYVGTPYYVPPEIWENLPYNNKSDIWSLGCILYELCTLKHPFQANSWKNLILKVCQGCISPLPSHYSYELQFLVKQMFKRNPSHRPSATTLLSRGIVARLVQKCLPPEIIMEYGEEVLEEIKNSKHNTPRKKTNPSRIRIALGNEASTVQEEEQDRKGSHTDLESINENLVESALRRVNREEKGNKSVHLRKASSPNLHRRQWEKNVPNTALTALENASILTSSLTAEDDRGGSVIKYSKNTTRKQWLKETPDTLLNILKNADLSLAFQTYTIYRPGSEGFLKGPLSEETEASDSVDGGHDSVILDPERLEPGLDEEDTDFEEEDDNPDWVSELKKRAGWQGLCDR
In short: (§1)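 MK2 inhibitory peptides were screened for specificity across a commercial panel of 266 human kinases, and each kinase activity measurement was run in duplicate.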

NEK11(h) = molecular target: T2, NEK11(h) (Homo sapiens, UniProt Q8NG66)
T2 sequence (Q8NG66 1-645): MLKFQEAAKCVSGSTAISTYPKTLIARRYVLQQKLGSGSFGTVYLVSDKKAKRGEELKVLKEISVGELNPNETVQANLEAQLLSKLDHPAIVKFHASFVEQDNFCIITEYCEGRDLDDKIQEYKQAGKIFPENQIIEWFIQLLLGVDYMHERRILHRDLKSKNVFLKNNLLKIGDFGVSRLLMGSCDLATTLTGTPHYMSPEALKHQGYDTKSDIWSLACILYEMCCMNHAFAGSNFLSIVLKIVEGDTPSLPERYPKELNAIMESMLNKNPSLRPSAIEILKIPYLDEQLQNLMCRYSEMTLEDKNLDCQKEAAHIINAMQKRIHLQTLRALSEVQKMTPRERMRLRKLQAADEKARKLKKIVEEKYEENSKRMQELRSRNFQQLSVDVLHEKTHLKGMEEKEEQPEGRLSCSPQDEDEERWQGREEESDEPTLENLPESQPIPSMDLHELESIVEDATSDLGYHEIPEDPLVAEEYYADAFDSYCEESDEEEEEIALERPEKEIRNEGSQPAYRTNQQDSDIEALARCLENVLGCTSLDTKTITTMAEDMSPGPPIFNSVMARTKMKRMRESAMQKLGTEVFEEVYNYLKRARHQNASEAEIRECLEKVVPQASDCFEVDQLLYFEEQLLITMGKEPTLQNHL
In short: as §1

PKCμ(h) = molecular target: T3, PKCμ(h) (Homo sapiens, UniProt Q15139)
T3 construct: purchased Millipore (IC50 Profiler Express service)
T3 sequence (Q15139 1-912): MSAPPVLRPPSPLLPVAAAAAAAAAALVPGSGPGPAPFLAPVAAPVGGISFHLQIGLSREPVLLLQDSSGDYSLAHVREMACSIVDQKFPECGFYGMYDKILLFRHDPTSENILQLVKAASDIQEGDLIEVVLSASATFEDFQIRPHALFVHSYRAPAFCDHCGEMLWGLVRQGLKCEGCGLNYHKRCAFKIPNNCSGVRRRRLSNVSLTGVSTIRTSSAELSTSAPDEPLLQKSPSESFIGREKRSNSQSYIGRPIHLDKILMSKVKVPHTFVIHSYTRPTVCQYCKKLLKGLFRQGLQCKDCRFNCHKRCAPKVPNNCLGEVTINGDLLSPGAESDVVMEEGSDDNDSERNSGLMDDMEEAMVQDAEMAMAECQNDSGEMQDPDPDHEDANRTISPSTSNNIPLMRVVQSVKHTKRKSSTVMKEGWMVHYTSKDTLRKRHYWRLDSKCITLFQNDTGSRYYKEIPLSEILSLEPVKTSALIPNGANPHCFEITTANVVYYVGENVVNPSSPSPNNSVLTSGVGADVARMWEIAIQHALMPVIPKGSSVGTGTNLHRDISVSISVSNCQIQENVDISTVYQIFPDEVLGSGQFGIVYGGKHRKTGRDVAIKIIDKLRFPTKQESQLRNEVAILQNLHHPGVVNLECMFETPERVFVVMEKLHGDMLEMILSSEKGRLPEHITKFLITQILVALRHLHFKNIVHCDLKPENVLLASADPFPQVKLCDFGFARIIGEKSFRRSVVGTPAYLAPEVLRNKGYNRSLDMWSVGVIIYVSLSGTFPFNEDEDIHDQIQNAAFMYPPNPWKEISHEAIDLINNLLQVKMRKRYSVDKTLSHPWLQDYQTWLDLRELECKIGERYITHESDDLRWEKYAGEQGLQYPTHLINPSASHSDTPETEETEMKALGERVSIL
In short: as §1

MSSK1(h) = MSSK1(h) (Homo sapiens, UniProt Q9UPE1)
MSSK1(h), sequence (Q9UPE1 whole entry): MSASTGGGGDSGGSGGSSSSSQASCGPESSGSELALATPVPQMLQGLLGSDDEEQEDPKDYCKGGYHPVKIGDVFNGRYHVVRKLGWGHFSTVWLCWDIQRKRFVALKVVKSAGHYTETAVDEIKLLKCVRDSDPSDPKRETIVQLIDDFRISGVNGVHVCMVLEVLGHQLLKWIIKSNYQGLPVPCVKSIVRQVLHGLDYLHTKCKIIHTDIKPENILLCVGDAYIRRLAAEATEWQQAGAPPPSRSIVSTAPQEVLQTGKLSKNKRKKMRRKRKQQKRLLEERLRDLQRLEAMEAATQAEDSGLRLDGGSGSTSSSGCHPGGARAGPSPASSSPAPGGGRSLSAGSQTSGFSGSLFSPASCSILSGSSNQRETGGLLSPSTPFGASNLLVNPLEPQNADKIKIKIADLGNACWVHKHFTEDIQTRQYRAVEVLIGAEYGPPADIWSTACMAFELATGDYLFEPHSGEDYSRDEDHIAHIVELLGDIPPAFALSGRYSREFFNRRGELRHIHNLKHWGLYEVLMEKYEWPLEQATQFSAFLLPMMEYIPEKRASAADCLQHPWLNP
In short: as §1

## HRRIKAWLKKIKALARQLGVAA (Mammalian) [MMI-0500]
NEK3(h)
  NEK3(h) % activity: 20%
NEK11(h)
  NEK11(h) % activity: 2%
PKCμ(h)
  PKCμ(h) % activity: 10%
MSSK1(h)
  MSSK1(h) % activity: 22%

## FAKLAARLYRKALARQLGVAA [MMI-0300]
NEK3(h)
  NEK3(h) % activity: 92%
NEK11(h)
  NEK11(h) % activity: 53%
PKCμ(h)
  PKCμ(h) % activity: 22%
MSSK1(h)
  MSSK1(h) % activity: 77%

## YARAAARQARAKALNRQLGVA (Mammalian) [MMI-0200]
NEK3(h)
  NEK3(h) % activity: 100%
NEK11(h)
  NEK11(h) % activity: 95%
PKCμ(h)
  PKCμ(h) % activity: 73%
MSSK1(h)
  MSSK1(h) % activity: 100%

## KAFAKLAARLYRKALARQLGVAA [MMI-0400]
NEK3(h)
  NEK3(h) % activity: 85%
NEK11(h)
  NEK11(h) % activity: 33%
PKCμ(h)
  PKCμ(h) % activity: 14%
MSSK1(h)
  MSSK1(h) % activity: 75%

From patent US10562947B2, “Compositions and methods for preventing or treating diseases, conditions or processes characterized by aberrant fibroblast proliferation and extracellular matrix deposition” (MOERAE MATRIX, INC., priority 2011, dated 2020)
